In article PMC5439444 (Vascular pharmacology, 2016):

Molecular target: GST fusion protein of human full-length (FL) Pin1 (residues 1-163) (human, UniProt Q13526 1-163)
Test: pull-down

Sequence of GST fusion protein of human full-length (FL) Pin1 (residues 1-163) (Q13526 whole entry, the tested form may be a part): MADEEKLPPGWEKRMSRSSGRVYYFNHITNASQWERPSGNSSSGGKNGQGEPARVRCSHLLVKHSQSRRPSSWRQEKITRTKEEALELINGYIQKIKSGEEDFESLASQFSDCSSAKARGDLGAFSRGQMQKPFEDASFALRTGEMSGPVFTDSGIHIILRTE

B1: bovine phospho-mimetic S116D endothelial nitric oxide synthase (eNOS) (enzyme, UniProt P29473 1-1205, looked up)
chain: MGNLKSVGQEPGPPCGLGLGLGLGLCGKQGPASPAPEPSRAPAPATPHAPDHSPAPNSPTLTRPPEGPKFPRVKNWELGSITYDTLCAQSQQDGPCTPRCCLGSLVLPRKLQTRPDPGPPPAEQLLSQARDFINQYYSSIKRSGSQAHEERLQEVEAEVASTGTYHLRESELVFGAKQAWRNAPRCVGRIQWGKLQVFDARDCSSAQEMFTYICNHIKYATNRGNLRSAITVFPQRAPGRGDFRIWNSQLVRYAGYRQQDGSVRGDPANVEITELCIQHGWTPGNGRFDVLPLLLQAPDEAPELFVLPPELVLEVPLEHPTLEWFAALGLRWYALPAVSNMLLEIGGLEFSAAPFSGWYMSTEIGTRNLCDPHRYNILEDVAVCMDLDTRTTSSLWKDKAAVEINLAVLHSFQLAKVTIVDHHAATVSFMKHLDNEQKARGGCPADWAWIVPPISGSLTPVFHQEMVNYILSPAFRYQPDPWKGSATKGAGITRKKTFKEVANAVKISASLMGTLMAKRVKATILYASETGRAQSYAQQLGRLFRKAFDPRVLCMDEYDVVSLEHEALVLVVTSTFGNGDPPENGESFAAALMEMSGPYNSSPRPEQHKSYKIRFNSVSCSDPLVSSWRRKRKESSNTDSAGALGTLRFCVFGLGSRAYPHFCAFARAVDTRLEELGGERLLQLGQGDELCGQEEAFRGWAKAAFQASCETFCVGEEAKAAAQDIFSPKRSWKRQRYRLSTQAEGLQLLPGLIHVHRRKMFQATVLSVENLQSSKSTRATILVRLDTAGQEGLQYQPGDHIGICPPNRPGLVEALLSRVEDPPPPTESVAVEQLEKGSPGGPPPSWVRDPRLPPCTLRQALTFFLDITSPPSPRLLRLLSTLAEEPSEQQELETLSQDPRRYEEWKWFRCPTLLEVLEQFPSVALPAPLLLTQLPLLQPRYYSVSSAPNAHPGEVHLTVAVLAYRTQDGLGPLHYGVCSTWLSQLKTGDPVPCFIRGAPSFRLPPDPYVPCILVGPGTGIAPFRGFWQERLHDIESKGLQPAPMTLVFGCRCSQLDHLYRDEVQDAQERGVFGRVLTAFSREPDSPKTYVQDILRTELAAEVHRVLCLERGHMFVCGDVTMATSVLQTVQRILATEGDMELDEAGDVIGVLRDQQRYHEDIFGLTLRTQEVTSRIRTQSFSLQERHLRGAVPWAFDPPGPDTPGP
amount bound relative to WT eNOS: > 2 fold
